A short description of data set [1]: Specific activity of CPC acylase to CPC (PDAB colorimetric assay). It counts as biochemical. The following applies: purified enzyme. The protocol:
Each E. coli transformant was inoculated into 3 ml of a LB medium (1% Bacto-Tryptone, 0.5% Yeast Extract, 0.5% NaCl) containing 25 μg/ml of chloramphenicol and cultured at 30° C., 200 rpm for 16 hr with vigorous shaking. 50 μl of the culture solution was transformed to 50 ml of a new LB medium containing […] of chloramphenicol and further cultured at 25° C., 200 rpm for 48 hr with vigorous shaking. The culture solution was subjected to centrifugation at 4° C., 8,000 rpm for 10 min to separate a precipitate and the precipitate washed twice with 0.1 M Tris-HCl buffer solution (pH 8.0). This precipitate was suspended in 5 ml of the same buffer solution and subjected to ultra-sonication at 4° C. for 10 min. […]
The enzyme activity of CPC acylase mutant to CPC was measured according to the method described by Park et al. with minor modifications as follows (Park, et al., Kor. J. Appl. Microbiol. Biotechnol. 23: 559-564, 1995). A substrate solution was prepared by dissolving CPC (purity 74.2%; CJ Corp., Korea) in 0.1 M Tris-HCl buffer solution (pH 8.0) at a concentration of 20 mg/ml and adjusting pH to 8 with 1 N NaOH. […] After the reaction, the mixture (200 μl) of 50 mM NaOH and 20% glacial acetic acid (1:2) was added thereto to stop the reaction. 200 μl of the supernatant recovered from the reaction mixture by centrifugation was mixed with 40 μl of 0.5% (w/v) PDAB (p-dimethylaminobenzaldehyde; Sigma, USA) dissolved in a methanol and the reaction mixture was incubated at 37° C. for 10 min. After the reaction, the absorbance of reaction mixture was measured at 415 nm and quantified by comparing with a calibration curve of standard material. At this time, 1 unit has been defined as the amount of enzyme capable to produce 1 μmole of 7-ACA from CPC per minute. Meanwhile, the specific activity of CPC acylase mutant for CPC was determined by measuring the amount of protein remaining in the enzyme solution according to the method described by Bradford (Bradford, M., Anal. Biochem. 72: 248-254, 1976) and representing it as an active unit corresponding to 1 mg of protein. The reactivity of CPC acylase mutant to CPC was determined by the following steps of adding the same amount of protein to a reaction mixture, performing an enzyme reaction for a fixed time, measuring the amount of 7-ACA produced in the reaction mixture, and representing it as a relative value. The end-product inhibition by 7-ACA was determined by adding a protein corresponding to the same active unit to a reaction mixture, performing an enzyme reaction for a fixed time; measuring the amount of 7-ACA produced in the reaction mixture, and representing it as a relative value.

Data set [2] can be described thus: Productivity of CPC acylase mutant, pET29 plasmids in E. coli BL21(DE3) with lactose. The following applies: pET29-S12, E. coli BL21(DE3), 2% lactose, 25° C., 72 hr. How it is done: Each of pET29-TnS5αβ and pET29-S12 plasmids was transformed into E. coli BL21(DE3) by electrophoration to prepare the recombinant E. coli containing pET29-TnS5αβ and pET29-S12 plasmid, respectively, and the productivity of sixfold CPC acylase mutant in each recombinant E. coli was measured The TnS5αβ and S12 CPC acylase mutant gene in these recombinant plasmids was transcribed by the action of T7 promoter which is under the control of LacI operator existed on pET29-a(+) vector.
The recombinant E. coli containing pET-TnS5αβ plasmid was inoculated in […] of a LB broth containing 20 μg/ml of kanamycin and cultivated at 30° C., 200 rpm for 16 hr with vigorous shaking. […] The activity of sixfold CPC acylase mutant to CPC was measured using said crude enzyme solution according to the same method as described in Example <1-1-2>.
Further, the productivity of CPC acylase by S12 mutant enzyme in the E. coli BL21(DE3) transformant containing pET29-S12 recombinant plasmid was measured according to the same method as described above except that […] of a LB broth containing 20 μg/ml of kanamycin and 2% lactose was employed for a main cultivation and the E. coli transformant was cultured at 25° C., 200 rpm for 72 hr with vigorous shaking. […]

The values that follow come from patent US7592168B2, “Cephalosporin C acylase mutant and method for preparing 7-ACA using same” (Sandoz AG, priority 2003, dated 2009).

Changes are numbered by the printed parent chain.

B1: Wild-type: Pseudomonas sp. SE83 derived wild-type CPC acylase (AcyII), α-subunit SEQ ID NO: 4 and β-subunit SEQ ID NO: 5, from pBCPC (protein)
alpha: TMAAKTDREALQAALPPLSGSLSIPGLSAPVRVQRDGWGIPHIKASGEADAYRALGFVHAQDRLFQMELTRRKALGRAAEWLGAEAAEADILVRRLGMEKVCRRDFEALGAEAKDMLRAYVAGVNAFLASGAPLPIEYGLLGAEPEPWEPWHSIAVMRRLGLLMGSVWFKLWRMLALPVVGAANALKLRYDDGGQDLLCIPPGVEAERLEADLAALRPAVDALLKAMGG
beta: SNNWAVAPGRTATGRPILAGDPHRVFEIPGMYAQHHLACDRFDMIGLTVPGVPGFPHFAHNGKVAYCVTHAFMDIHDLYLEQFAEDGRTARFGNEFEPVAWRRDRIAVRGGADREFDIVETRHGPVIAGDPLEGAALTLRSVQFAETDLSFDCLTRMPGASTVAQLYDATRGWGLIDHNLVAGDVAGSIGHLVRARVPSRPRENGWLPVPGWSGEHEWRGWIPHEAMPRVIDPPGGLIVTANNRVVADDHPDYLCTDCHPPYRAERIMERLVASPAFAVDDAAAIHADTLSPHVGLLRARLEALGIQGSLPAEELRQTLIAWDGRMDAGSQAASAYNAFRRALTRLVTARSGLEQAIAHPFAAVPPGVSPQGQVWWAVPTLLRNDDAGMLKGWSWDEALSEALSVATQNLTGRGWGEEHRPRFTHPLSAQFPAWAALLNPVSRPIGGDGDTVLANGLVPSAGPEATYGALSRYVFDVGNWDNSRWVVFHGASGHPASPHYADQNAPWSDCAMVPMLYSWDRIAAEAVTSQELVPA
modifications: Pseudomonas sp. SE83
Consider B1, for which, in data set [1], the “specific activity to CPC as % of that to GL-7-ACA” value was “about 1.4%”. In addition, the “specific activity to CPC” value in data set [1] (pH 8.0) is given as “about 0.33 unit/mg protein”. In addition, the “Relative activity to CPC (fold)” value in data set [1] (relative to wild-type) stood at 1.0 fold.

B2: S12: sixfold CPC acylase mutant, α-subunit SEQ ID NO: 7 and β-subunit SEQ ID NO: 8 (protein)
alpha: B1 alpha with V121A, G139S
beta: B1 beta with F58N, I75T, I176V, S471C
modifications: alpha-subunit of mutatnt CPC acylase S12 protein; beta-subunit of mutatnt CPC acylase S12 protein
As to B2, the “specific activity to CPC, fold higher than that of the wild-type CPC acylase” value in data set [1] (pH 8.5) amounted to 8.5 fold. In addition, the “specific activity to CPC” value in data set [1] (pH of the reaction mixture 8.5) came out at 5.8 unit/mg protein. Moreover, the “productivity of CPC acylase mutant” value in data set [2] is on record as 1,207 unit/l.
